Two molecules from patent US20220119490A1 (Genentech, published 2022) can be followed below.

Test [1] has as its target T1, PTPRD ΔG61 ΔE106 variant extracellular domain (human, UniProt P23468 21-1265).
T1 construct: extracellular domain; meaning of the deletion notation not explained; also called IG1 mutant
T1 sequence (looked up): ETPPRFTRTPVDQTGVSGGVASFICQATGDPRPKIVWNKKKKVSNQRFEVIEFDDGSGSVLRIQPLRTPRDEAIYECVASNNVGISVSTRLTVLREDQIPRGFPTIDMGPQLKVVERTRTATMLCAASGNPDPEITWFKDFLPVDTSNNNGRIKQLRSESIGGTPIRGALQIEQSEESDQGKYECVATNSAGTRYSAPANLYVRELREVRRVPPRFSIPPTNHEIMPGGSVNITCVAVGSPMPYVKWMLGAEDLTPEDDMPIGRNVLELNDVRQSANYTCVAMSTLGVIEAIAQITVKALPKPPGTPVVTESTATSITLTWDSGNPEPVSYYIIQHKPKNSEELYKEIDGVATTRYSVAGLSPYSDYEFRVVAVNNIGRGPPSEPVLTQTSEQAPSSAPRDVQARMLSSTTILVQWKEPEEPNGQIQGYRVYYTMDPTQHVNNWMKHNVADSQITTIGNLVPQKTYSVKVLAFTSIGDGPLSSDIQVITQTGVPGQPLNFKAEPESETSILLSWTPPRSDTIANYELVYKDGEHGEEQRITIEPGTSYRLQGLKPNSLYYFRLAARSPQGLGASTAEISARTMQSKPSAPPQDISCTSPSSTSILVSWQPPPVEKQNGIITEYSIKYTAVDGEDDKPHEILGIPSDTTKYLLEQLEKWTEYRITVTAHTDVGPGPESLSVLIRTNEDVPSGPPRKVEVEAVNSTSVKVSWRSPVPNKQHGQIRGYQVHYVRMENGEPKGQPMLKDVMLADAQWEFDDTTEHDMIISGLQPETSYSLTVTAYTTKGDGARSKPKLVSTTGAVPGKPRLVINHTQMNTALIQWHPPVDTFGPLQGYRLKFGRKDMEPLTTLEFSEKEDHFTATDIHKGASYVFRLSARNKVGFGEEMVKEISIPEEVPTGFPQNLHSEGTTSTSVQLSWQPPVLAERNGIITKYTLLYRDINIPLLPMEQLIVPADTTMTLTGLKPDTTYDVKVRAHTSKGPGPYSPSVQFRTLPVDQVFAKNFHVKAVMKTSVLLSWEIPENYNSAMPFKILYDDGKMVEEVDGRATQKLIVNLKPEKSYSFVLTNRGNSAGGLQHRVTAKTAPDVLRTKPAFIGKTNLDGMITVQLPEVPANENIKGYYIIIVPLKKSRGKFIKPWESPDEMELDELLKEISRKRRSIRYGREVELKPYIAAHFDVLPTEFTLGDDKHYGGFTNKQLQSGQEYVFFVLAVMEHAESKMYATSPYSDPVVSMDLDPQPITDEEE
In words: extracellular interaction screen: pentameric PTPRD variant ECD on ECD-Fc prey (FIG. 5L).

Test [2] has as its target T2, PTPRS expressed on cells (human, UniProt Q13332 30-1948).
T2 construct: whole, on cells; also called receptor-type tyrosine-protein phosphatase S
In words: cell surface interaction assay: streptavidin-tetramerized biotinylated ECD on transfected cells, immunofluorescence.

For test [3], the target named is T3, PTPRF expressed on cells (human, UniProt P10586 30-1907).
T3 construct: whole, on cells; also called receptor-type tyrosine-protein phosphatase F
Described as above.

Test [4] has as its target T4, PTPRD expressed on cells (human, UniProt P23468 21-1912).
T4 construct: whole, on cells; also called receptor-type tyrosine-protein phosphatase delta
The description is as above.

T2 sequence (Q13332 30-1948): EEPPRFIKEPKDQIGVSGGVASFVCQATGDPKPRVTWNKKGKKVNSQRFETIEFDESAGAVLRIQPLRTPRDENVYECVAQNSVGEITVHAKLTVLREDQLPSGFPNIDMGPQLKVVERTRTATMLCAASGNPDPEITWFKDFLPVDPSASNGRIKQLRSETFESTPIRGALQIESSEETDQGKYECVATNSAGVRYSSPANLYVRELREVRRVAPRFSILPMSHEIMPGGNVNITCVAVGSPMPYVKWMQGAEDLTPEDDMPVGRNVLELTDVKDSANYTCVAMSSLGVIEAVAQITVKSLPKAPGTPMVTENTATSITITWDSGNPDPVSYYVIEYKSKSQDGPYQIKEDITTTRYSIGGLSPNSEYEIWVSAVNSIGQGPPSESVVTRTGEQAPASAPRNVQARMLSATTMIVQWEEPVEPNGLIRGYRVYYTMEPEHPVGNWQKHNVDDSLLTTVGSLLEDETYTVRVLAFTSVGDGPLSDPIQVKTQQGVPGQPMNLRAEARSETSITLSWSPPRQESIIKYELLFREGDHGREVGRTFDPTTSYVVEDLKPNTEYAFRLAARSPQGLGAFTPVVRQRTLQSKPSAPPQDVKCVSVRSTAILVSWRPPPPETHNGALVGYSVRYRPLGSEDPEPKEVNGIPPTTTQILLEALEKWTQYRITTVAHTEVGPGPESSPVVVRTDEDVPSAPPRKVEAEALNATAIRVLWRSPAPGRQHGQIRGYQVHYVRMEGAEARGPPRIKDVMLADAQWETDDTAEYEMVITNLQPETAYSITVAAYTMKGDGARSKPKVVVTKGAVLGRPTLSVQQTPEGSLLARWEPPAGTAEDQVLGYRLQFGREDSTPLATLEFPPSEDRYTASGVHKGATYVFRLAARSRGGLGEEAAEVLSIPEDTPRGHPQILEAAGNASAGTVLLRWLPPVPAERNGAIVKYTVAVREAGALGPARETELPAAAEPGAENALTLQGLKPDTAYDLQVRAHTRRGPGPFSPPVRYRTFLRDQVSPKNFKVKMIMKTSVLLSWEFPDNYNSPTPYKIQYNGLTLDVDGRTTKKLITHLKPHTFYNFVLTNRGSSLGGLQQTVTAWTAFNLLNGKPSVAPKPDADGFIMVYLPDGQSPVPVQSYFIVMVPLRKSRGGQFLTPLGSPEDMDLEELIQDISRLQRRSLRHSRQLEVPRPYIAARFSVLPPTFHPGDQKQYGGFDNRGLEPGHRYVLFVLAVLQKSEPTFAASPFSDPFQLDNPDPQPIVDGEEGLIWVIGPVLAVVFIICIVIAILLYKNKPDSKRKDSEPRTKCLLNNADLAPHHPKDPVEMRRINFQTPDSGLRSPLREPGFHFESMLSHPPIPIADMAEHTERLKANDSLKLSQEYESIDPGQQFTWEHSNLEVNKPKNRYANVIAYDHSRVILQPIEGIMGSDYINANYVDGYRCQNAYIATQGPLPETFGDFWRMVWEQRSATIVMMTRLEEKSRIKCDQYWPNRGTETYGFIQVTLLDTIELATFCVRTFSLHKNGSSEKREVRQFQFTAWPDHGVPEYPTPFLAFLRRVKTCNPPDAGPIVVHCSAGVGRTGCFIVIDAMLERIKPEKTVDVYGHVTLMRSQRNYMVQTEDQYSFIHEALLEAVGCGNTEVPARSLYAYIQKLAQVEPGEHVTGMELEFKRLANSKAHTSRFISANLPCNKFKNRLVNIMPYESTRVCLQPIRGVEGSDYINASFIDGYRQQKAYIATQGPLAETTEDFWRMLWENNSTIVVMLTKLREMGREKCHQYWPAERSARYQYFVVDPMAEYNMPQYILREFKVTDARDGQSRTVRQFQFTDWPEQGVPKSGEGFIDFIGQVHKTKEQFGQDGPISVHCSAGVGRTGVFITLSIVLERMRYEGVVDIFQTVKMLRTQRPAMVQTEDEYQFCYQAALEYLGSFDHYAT
T4 sequence (P23468 21-1912): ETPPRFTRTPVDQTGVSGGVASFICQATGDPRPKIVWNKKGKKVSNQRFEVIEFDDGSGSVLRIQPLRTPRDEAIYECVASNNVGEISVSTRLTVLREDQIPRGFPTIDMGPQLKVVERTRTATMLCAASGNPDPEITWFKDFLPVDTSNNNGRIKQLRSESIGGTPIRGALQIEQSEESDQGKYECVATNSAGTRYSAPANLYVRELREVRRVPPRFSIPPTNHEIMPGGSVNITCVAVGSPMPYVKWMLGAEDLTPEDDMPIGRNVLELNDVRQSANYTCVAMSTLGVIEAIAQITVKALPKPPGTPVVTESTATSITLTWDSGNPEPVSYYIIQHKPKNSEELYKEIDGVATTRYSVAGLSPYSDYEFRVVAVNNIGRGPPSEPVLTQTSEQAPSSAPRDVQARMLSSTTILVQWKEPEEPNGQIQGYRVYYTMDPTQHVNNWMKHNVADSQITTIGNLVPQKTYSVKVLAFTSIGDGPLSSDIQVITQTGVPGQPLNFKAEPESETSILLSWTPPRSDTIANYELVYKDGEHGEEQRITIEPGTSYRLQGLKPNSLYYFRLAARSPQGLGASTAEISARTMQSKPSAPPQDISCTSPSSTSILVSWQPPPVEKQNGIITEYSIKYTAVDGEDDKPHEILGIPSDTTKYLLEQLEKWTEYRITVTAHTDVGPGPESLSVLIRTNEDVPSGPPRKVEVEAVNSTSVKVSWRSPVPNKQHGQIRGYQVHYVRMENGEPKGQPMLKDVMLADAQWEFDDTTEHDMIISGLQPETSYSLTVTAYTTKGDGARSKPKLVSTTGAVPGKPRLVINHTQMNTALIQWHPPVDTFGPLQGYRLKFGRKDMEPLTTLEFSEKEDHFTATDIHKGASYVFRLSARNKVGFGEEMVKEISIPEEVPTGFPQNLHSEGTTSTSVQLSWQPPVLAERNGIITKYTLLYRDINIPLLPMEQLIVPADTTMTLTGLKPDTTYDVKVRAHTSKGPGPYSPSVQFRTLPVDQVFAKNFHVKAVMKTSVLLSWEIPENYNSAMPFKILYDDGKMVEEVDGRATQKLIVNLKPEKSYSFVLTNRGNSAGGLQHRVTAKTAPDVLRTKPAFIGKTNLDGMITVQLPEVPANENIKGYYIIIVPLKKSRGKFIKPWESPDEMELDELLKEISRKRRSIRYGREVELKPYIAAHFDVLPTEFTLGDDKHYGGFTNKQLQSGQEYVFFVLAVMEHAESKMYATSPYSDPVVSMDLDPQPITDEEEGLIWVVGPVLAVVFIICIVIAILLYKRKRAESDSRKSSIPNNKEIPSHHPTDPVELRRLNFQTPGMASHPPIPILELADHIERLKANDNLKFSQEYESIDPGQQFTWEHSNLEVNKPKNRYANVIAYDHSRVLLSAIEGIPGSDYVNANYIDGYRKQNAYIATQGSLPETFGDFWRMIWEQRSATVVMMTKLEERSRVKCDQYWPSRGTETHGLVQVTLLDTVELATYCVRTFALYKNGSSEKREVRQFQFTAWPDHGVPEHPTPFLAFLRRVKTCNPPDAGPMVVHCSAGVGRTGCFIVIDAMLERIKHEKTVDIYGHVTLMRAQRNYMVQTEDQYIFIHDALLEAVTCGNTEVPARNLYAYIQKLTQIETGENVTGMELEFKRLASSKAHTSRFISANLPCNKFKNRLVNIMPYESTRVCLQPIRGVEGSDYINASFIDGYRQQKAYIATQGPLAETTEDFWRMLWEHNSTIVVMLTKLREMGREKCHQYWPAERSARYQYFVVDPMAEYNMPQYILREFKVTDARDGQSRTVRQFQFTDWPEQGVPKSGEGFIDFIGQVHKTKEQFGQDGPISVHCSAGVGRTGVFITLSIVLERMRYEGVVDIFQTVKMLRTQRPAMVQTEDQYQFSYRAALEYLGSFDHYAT

B1: LRRC4B extracellular domain (receptor, human, UniProt Q9NT99 36-576, looked up)
chain: AGGGGVAVTSAAGGGSPPATSCPVACSCSNQASRVICTRRDLAEVPASIPVNTRYLNLQENGIQVIRTDTFKHLRHLEILQLSKNLVRKIEVGAFNGLPSLNTLELFDNRLTTVPTQAFEYLSKLRELWLRNNPIESIPSYAFNRVPSLRRLDLGELKRLEYISEAAFEGLVNLRYLNLGMCNLKDIPNLTALVRLEELELSGNRLDLIRPGSFQGLTSLRKLWLMHAQVATIERNAFDDLKSLEELNLSHNNLMSLPHDLFTPLHRLERVHLNHNPWHCNCDVLWLSWWLKETVPSNTTCCARCHAPAGLKGRYIGELDQSHFTCYAPVIVEPPTDLNVTEGMAAELKCRTGTSMTSVNWLTPNGTLMTHGSYRVRISVLHDGTLNFTNVTVQDTGQYTCMVTNSAGNTTASATLNVSAVDPVAAGGTGSGGGGPGGSGGVGGGSGGYTYFTTVTVETLETQPGEEALQPRGTEKEPPGPTTDGVWGGGRPGDAAGPASSSTTAPAPRSSRPTEKAFTVPITDVTENALKDLDDVMKTTK
notes: extracellular domain; ECD-Fc prey; also called NGL-3; netrin-G ligand-3
Consider B1, for which, in test [1], the binding result was “no binding”.

B2: LRFN5 extracellular domain (receptor, human, UniProt Q96NI6 18-529, looked up)
chain: QICPKRCVCQILSPNLATLCAKKGLLFVPPNIDRRTVELRLADNFVTNIKRKDFANMTSLVDLTLSRNTISFITPHAFADLRNLRALHLNSNRLTKITNDMFSGLSNLHHLILNNNQLTLISSTAFDDVFALEELDLSYNNLETIPWDAVEKMVSLHTLSLDHNMIDNIPKGTFSHLHKMTRLDVTSNKLQKLPPDPLFQRAQVLATSGIISPSTFALSFGGNPLHCNCELLWLRRLSREDDLETCASPPLLTGRYFWSIPEEEFLCEPPLITRHTHEMRVLEGQRATLRCKARGDPEPAIHWISPEGKLISNATRSLVYDNGTLDILITTVKDTGAFTCIASNPAGEATQIVDLHIIKLPHLLNSTNHIHEPDPGSSDISTSTKSGSNTSSSNGDTKLSQDKIVVAEATSSTALLKFNFQRNIPGIRMFQIQYNGTYDDTLVYRMIPPTSKTFLVNNLAAGTMYDLCVLAIYDDGITSLTATRVVGCIQFTTEQDYVRCHFMQSQFLGGTM
notes: extracellular domain; Streptavidin tetramer in cell assay; ECD-Fc prey in the variant screen; also called LFRN5
As to B2, the binding result in test [2], in test [3] and in test [4] was “binds” throughout.
